Reference: patent US20150031617A1, “USE OF THYMOSIN ALPHA FOR TREATMENT OF PURULENT RHINOSINUSITIS” (SCICLONE PHARMACEUTICALS, INC., priority 2012, published 2015)

Key:
[1] = cited from earlier work
[2] = tested on: monocytes and granulocytes of patients with purulent rhinosinusitis; assay: monocyte and granulocyte polarization in vitro in patients with purulent rhinosinusitis; type: cell-based, human; settings: 10 patients; thymalfasin, 0.1 mg/ml; FIG. 1
Method: The results in 10 patients were evaluated. The monocyte and granulocyte polarizations in 10 patients were evaluated. Initially, 3 to 4 of the patients started with decreased polarization. […] (See, FIG. 1.) As a control, N-formylmethionyl-leucyl-phenylalanine (fMLP)-induced polarization of healthy donor monocytes. (See, FIG. 2.) Concentrations were TP-1, 1 mg/ml, thymalfasin, 0.1 mg/ml and fMLP, 10^−8M.

(N-acetyl)-Ser-Asp-Ala-Ala-Val-Asp-Thr-Ser-Ser-Glu-Ile-Thr-Thr-Lys-Asp-Leu-Lys-Glu-Lys-Lys-Glu-Val-Val-Glu-Glu-Ala-Glu-Asn-OH (Ac-SDAAVDTSSEITTKDLKEKKEVVEEAEN-OH) [TA1]
Peak plasma levels ([1]; after injection of 3.2 mg of TA1 (about 40 μg/kg)): approximately 100 ng/ml
TA1 circulating in serum ([1]; circulating serum level): 0.1 to 1.0 ng/mL
half-life in the circulation ([1]; in the circulation): about 2 hours
monocyte and granulocyte polarization in vitro [2]: worked excellently in improving and restoring the polarization in vitro
